In assay [1] the target is HLA-A*68:02. In words: IEDB peptide-MHC binding, cellular MHC/competitive/fluorescence; ≥ and ≤ were set here for values at or beyond the usual limits of such assays.
Assay [2] addresses HLA-A*02:01. Put plainly: IEDB peptide-MHC binding, purified MHC/competitive/radioactivity; ≥ and ≤ were set here for values at or beyond the usual limits of such assays.
Assay [3] has as its target HLA-A*02:02. The assay is described as above.
The target in assay [4] is HLA-A*02:03. Described as above.
The target of assay [5] is HLA-A*02:06. The description is as above.
Where [6] appears, read: source organism: Hepacivirus hominis.
[7] abbreviates: source organism: Mammarenavirus whitewaterense.
The mark [8] stands for this setting: source organism: Vaccinia virus WR.
The mark [9] stands for this setting: source organism: Mammarenavirus choriomeningitidis.

These results are taken from the Immune Epitope Database (IEDB).

pIC50: −log10 of the molar value.

Regarding FLFLAWIMLL, the pIC50 in assay [1] (source organism: SARS-CoV1) was 5.21; in assay [2] (source organism: SARS-CoV1), 7.10; in assay [3] (source organism: SARS-CoV1) it was 7.72; in assay [4] (source organism: SARS-CoV1), 7.25; in assay [5] (source organism: SARS-CoV1) it was 5.99.
With FLLALLSCI, the pIC50 in assay [1] (setting [6]) was no more than 4.15; in assay [2] (setting [6]) it was 8.62; in assay [3] (setting [6]), 8.06; in assay [4] (setting [6]) it was 8.14; in assay [5] (setting [6]), 7.82.
FLLALLSCL: the pIC50 in assay [1] (setting [6]) was 4.86; in assay [2] (setting [6]) it was 8.55; in assay [3] (setting [6]), 8.59; in assay [4] (setting [6]), 7.77; in assay [5] (setting [6]), 7.62.
The matching figures for FLLALLSCLT: no more than 4.15, 7.04, 7.07, 6.81 and 6.23.
As for FLLFLVLIML, the pIC50 in assay [1] (source organism: SARS-CoV1) was 5.23; in assay [2] (source organism: SARS-CoV1), 6.85; in assay [3] (source organism: SARS-CoV1), 5.80; in assay [4] (source organism: SARS-CoV1), 5.86; in assay [5] (source organism: SARS-CoV1) it was 5.53.
The matching figures for FLLNKEMYL: 4.92, 8.96, 9.48, 8.96 and 8.80.
For the sequence FLLRGPFEAS, the pIC50 is 4.41 in assay [1] (setting [7]); 6.96 in assay [2] (setting [7]); 7.57 in assay [3] (setting [7]); 7.08 in assay [4] (setting [7]); 7.15 in assay [5] (setting [7]).
Consider FLMSFTILCL, for which the pIC50 in assay [1] (source organism: SARS-CoV1) was 5.12; in assay [2] (source organism: SARS-CoV1) it was 8.04; in assay [3] (source organism: SARS-CoV1), 9.09; in assay [4] (source organism: SARS-CoV1), 6.67; in assay [5] (source organism: SARS-CoV1), 7.13.
Take FLPQIGGEAI: the pIC50 was 5.18 in assay [1] (setting [8]); 6.80 in assay [2] (setting [8]); 9.00 in assay [3] (setting [8]); 7.85 in assay [4] (setting [8]); 8.00 in assay [5] (setting [8]).
With FLQISRVNDL, the pIC50 in assay [1] (setting [8]) is 5.13; in assay [2] (setting [8]), 7.89; in assay [3] (setting [8]) it was 8.28; in assay [4] (setting [8]) it was 7.17; in assay [5] (setting [8]), 6.24.
As for FLTNKLLLFA, the pIC50 in assay [1] (source organism: SARS-CoV1) is 4.93; in assay [2] (source organism: SARS-CoV1) it was 8.21; in assay [3] (source organism: SARS-CoV1) it was 9.38; in assay [4] (source organism: SARS-CoV1), 8.85; in assay [5] (source organism: SARS-CoV1), 8.12.
The matching figures for FLWLLWPVTL: 5.28, 9.01, 8.57, 7.85 and 7.55.
For the sequence FLYIIKLVFL, the pIC50 is 4.58 in assay [1] (source organism: SARS-CoV1); 7.72 in assay [2] (source organism: SARS-CoV1); 8.14 in assay [3] (source organism: SARS-CoV1); 7.66 in assay [4] (source organism: SARS-CoV1); 6.06 in assay [5] (source organism: SARS-CoV1).
In the case of FMEEEIKAEM, the pIC50 in assay [1] (setting [8]) was 4.77; in assay [2] (setting [8]) it was 7.07; in assay [3] (setting [8]) it was 5.99; in assay [4] (setting [8]) it was 5.51; in assay [5] (setting [8]) it was 6.06.
FMLCLLLLS: the pIC50 in assay [1] (setting [6]) was no more than 4.15; in assay [2] (setting [6]) it was 5.56; in assay [3] (setting [6]) it was 6.00; in assay [4] (setting [6]) it was 5.84; in assay [5] (setting [6]), 5.68.
The matching figures for FMLCLLLLSV: 4.55, 6.83, 6.33, 6.50 and 6.71.
Take FMLNVSYLC: the pIC50 is 5.07 in assay [1] (setting [9]); 5.98 in assay [2] (setting [9]); 6.71 in assay [3] (setting [9]); 5.90 in assay [4] (setting [9]); 6.03 in assay [5] (setting [9]).
FQFICNLLLL: the pIC50 in assay [1] (source organism: SARS-CoV1) was 5.04; in assay [2] (source organism: SARS-CoV1), 8.28; in assay [3] (source organism: SARS-CoV1), 8.10; in assay [4] (source organism: SARS-CoV1), 7.21; in assay [5] (source organism: SARS-CoV1), 9.06.
As for GAFMYTKHSM, the pIC50 was 5.02 in assay [1] (setting [8]); 5.70 in assay [2] (setting [8]); 6.26 in assay [3] (setting [8]); 6.34 in assay [4] (setting [8]); 5.50 in assay [5] (setting [8]).
GIADIRDKYM: the pIC50 in assay [1] (setting [8]) was 5.23; in assay [2] (setting [8]), 5.96; in assay [3] (setting [8]), 9.16; in assay [4] (setting [8]), 7.32; in assay [5] (setting [8]) it was 5.75.
For GIAIFNNRNL, the pIC50 in assay [1] (setting [8]) is 4.96; in assay [2] (setting [8]), 5.87; in assay [3] (setting [8]) it was 8.29; in assay [4] (setting [8]), 5.69; in assay [5] (setting [8]), 5.33.
Consider GIIITVGMLI, for which the pIC50 is 5.04 in assay [1] (setting [8]); 6.02 in assay [2] (setting [8]); 5.45 in assay [3] (setting [8]); 6.23 in assay [4] (setting [8]); 5.95 in assay [5] (setting [8]).
The matching figures for GLCNYGGIL: no more than 4.15, 6.39, 7.01, 6.90 and 5.87.
On to GLDERFVEEL, for which the pIC50 in assay [1] (setting [8]) is 5.21; in assay [2] (setting [8]), 6.48; in assay [3] (setting [8]) it was 7.03; in assay [4] (setting [8]), 5.92; in assay [5] (setting [8]), 5.60.
